Data from patent publication US20250027060A1 (VIB VZW, published 2025).

Experiments:
[1] = target: T1, ALKTG (human ALK amino acids 648-985) (human, UniProt Q9UM73 648-985, N-linked glycans; EndoH-trimmed for crystals and SEC-MALLS); assay: ITC at 310 K, ALKAL1 (33 µM) titrated with ALKTG (330 µM), one-site model
T1 construct: Fc-His6 tag removed by caspase 3; also called ALK TG supradomain
Procedure: FIG. 5E, Titration of ALKAL1 (33 μM) with ALKTG (330 μM) Standard deviations were calculated based on 3 measurements.
(§1) Experiments were performed using a MicroCal PEAQ-ITC instrument at 310K. Proteins used in ITC experiments were expressed in HEK293S cells grown in suspension. As a final purification step all proteins were buffer exchanged to the same HBS buffer via size-exclusion chromatography. Titrations were preceded by an initial injection of 0.5 μL. The injection spacing was optimized per experiment to allow for the signal to get back to a stable baseline. Throughout the titration the sample was stirred at a speed of 750 r.p.m. Data were analyzed using the PEAQ-ITC analysis software (version 1.1.0.1262, Malvern) and fit using a “one set of sites” model.

[2] = target: T2, LTKTG (human LTK amino acids 63-379) (human, UniProt P29376 63-379); assay: ITC at 310 K, LTKTG (10 µM) titrated with ALKAL1 (70 µM), one-site model
T2 construct: also called LTK TG supradomain
T2 sequence: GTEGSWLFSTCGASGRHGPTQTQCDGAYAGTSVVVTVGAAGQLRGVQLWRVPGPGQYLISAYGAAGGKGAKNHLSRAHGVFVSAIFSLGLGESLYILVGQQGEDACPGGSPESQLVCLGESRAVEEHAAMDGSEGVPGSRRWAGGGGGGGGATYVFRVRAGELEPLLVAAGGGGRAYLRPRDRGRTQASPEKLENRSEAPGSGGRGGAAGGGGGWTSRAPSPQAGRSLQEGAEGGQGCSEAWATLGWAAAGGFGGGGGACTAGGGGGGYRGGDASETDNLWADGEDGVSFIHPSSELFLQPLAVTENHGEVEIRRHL
Procedure: FIG. 12F, ITC experiments for the titration of LTKTG (10 μM) with ALKAL1 (70 μM) Standard deviations were calculated based on 2 measurements.
as §1

[3] = target: T3, LTKTG-EGFL (human LTK amino acids 63-420) (human, UniProt P29376 63-420); assay: BLI, biotinylated ALKAL1 on streptavidin biosensors, LTKTG-EGFL in solution 300 nM to 11 nM, 2:1 binding model, component 1
T3 construct: Fc-His6 tag removed by caspase 3; also called LTK (in BLI, SEC-MALLS and ITC)
T3 sequence: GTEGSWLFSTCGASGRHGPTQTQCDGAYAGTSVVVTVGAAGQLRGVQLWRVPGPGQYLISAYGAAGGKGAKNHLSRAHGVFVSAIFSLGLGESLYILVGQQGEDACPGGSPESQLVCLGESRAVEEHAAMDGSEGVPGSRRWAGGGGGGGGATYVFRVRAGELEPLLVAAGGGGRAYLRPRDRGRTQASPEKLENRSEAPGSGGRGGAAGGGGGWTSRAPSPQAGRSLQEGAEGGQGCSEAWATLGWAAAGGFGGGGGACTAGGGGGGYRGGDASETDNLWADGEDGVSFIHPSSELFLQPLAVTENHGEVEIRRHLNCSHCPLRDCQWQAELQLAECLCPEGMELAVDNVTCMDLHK
Description: (§2) FIGS. 10A and 10B Representative response curves as measure by biolayer-interferometry (BLI) for the interaction of WT ALKAL1 and ALKAL1 mutants (containing charge-reversal mutations of residues involved in site 1) (FIG. 10A) and WT ALKAL2 and ALKAL2 mutants (FIG. 10B) with ALK_TG-EGFL and LTK_TG-EGFL. For WT ALKALs LTK curves were fitted with a 2:1 binding model (red) while for ALK a 1:1 model was used. Start and end concentrations of the 3-fold dilution series used for the WT measurements is shown as an inset while for all mutants a […] dilution series from 6.4 μM-400 nM was used.
(§3) All measurements of binding kinetics and dissociation constants were performed using an Octet Red 96 (Forté Bio) in assay buffer (20 mM HEPES pH 7.4, 150 mM NaCl, 0.02% (w/v) BSA, 0.002% (v/v) Tween 20) at 298K. ALKALs were immobilized to a level of 0.5 nm on streptavidin-coated biosensors (Forté Bio). To verify that no a specific binding was present during the assay, non-functionalized biosensors were used as a control by measuring in parallel all ligand concentrations as well as running buffer. For all mutants a two-fold dilution series from 6.4 μM-400 nM was employed. Data analysis was performed using the Data Analysis software 9.0.0.14 (Forté Bio) and binding curves were exported to Prism8 (Graphpad Software) for plotting of curves.

[4] = target: T3, LTKTG-EGFL (human LTK amino acids …); assay: BLI, biotinylated ALKAL1 on streptavidin biosensors, LTKTG-EGFL in solution 300 nM to 11 nM, 2:1 binding model, component 2
Description: as §2, §3

[5] = target: T1, ALKTG (human ALK amino acids 648-985); assay: ITC
Procedure: as §1

[6] = target: T4, ALKTG-EGFL (human ALK amino acids 648-1025) (human, UniProt Q9UM73 648-1025, N-linked glycans; EndoH-trimmed (deglycosylated) for crystals and SEC-MALLS); assay: ITC at 310 K, ALKAL1 (25 µM) titrated with ALKTG-EGFL (210 µM), one-site model
T4 construct: The C-terminal Fc-His6 tag was removed by caspase 3; also called ALK (in BLI, SEC-MALLS and ITC)
Procedure: (§4) FIG. 5A and FIG. 5B Isothermal titration calorimetry thermograms for the titration of ALK_TG-EGFL (10 μM) with ALKAL2 (100 μM) (FIG. 5A) and titration of ALKAL1 (25 μM) with ALK_TG-EGFL (210 μM) (FIG. 5B). […] The right panel represents the binding isotherm obtained from the integration of the raw data and fitted to a one-site model. Standard deviations were calculated based on 3 measurements.
as §1

[7] = target: T4, ALKTG-EGFL (human ALK amino acids …); assay: ITC, 310 K, one-site model
Procedure: as §4, §1

[8] = target: T3, LTKTG-EGFL (human LTK amino acids …); assay: ITC, 310 K, one-site model, 2:1 stoichiometry
Procedure: (§5) The right panel represents the binding isotherm obtained from the integration of the raw data and fitted to a one-site model. Standard deviations were calculated based on 3 measurements.
as §1

[9] = target: T3, LTKTG-EGFL (human LTK amino acids …); assay: ITC at 310 K, LTKTG-EGFL (5 µM) titrated with ALKAL1 (56 µM), one-site model
Procedure: as §5, §1

[10] = target: T4, ALKTG-EGFL (human ALK amino acids …); assay: BLI, biotinylated ALKAL1 on streptavidin biosensors, ALKTG-EGFL in solution 6 µM to 400 nM, 1:1 model
Description: as §2, §3

[11] = target: T3, LTKTG-EGFL (human LTK amino acids …); assay: BLI, biotinylated ALKAL1 R102E on streptavidin biosensors, LTKTG-EGFL in solution, dilution series 6.4 µM-400 nM
Description: as §2, §3

[12] = target: T3, LTKTG-EGFL (human LTK amino acids …); assay: ITC at 310 K, LTKTG-EGFL (12 µM) titrated with ALKAL2 (56 µM), one-site model
Procedure: as §5, §1

[13] = target: T3, LTKTG-EGFL (human LTK amino acids …); assay: BLI, biotinylated ALKAL2 on streptavidin biosensors, LTKTG-EGFL in solution 300 nM to 11 nM, 2:1 binding model, component 1
Description: as §2, §3

[14] = target: T4, ALKTG-EGFL (human ALK amino acids …); assay: ITC at 310 K, ALKTG-EGFL (10 µM) titrated with ALKAL2 (100 µM), one-site model
Procedure: as §4, §1

[15] = target: T4, ALKTG-EGFL (human ALK amino acids …); assay: BLI, biotinylated ALKAL2 on streptavidin biosensors, ALKTG-EGFL in solution 800 nM to 12.5 nM, 1:1 model
Description: as §2, §3

[16] = target: T1, ALKTG (human ALK amino acids 648-985); assay: ITC at 310 K, ALKAL2 (33 µM) titrated with ALKTG (330 µM), one-site model
Procedure: FIG. 5D, Titration of ALKAL2 (33 μM) with ALKTG (330 μM) Standard deviations were calculated based on 3 measurements.
as §1

[17] = target: T5, ALKFL (full-length human ALK ectodomain, amino acids 19-1025) (human, UniProt Q9UM73 19-1025); assay: ITC at 310 K, ALKFL (8 µM) titrated with ALKAL2 (82 µM), one-site model
T5 construct: Fc-His6 tag removed by caspase 3; also called full-length ALK ectodomain

[18] = target: T2, LTKTG (human LTK amino acids 63-379); assay: ITC at 310 K, LTKTG (10 µM) titrated with ALKAL2 (100 µM), one-site model
Procedure: FIG. 12G, ITC experiments for the titration of LTKTG (10 μM) with ALKAL2 (100 μM) Standard deviations were calculated based on 2 measurements.
as §1

[19] = target: T3, LTKTG-EGFL (human LTK amino acids …); assay: BLI, biotinylated ALKAL2 on streptavidin biosensors, LTKTG-EGFL in solution 300 nM to 11 nM, 2:1 binding model, component 2
Description: as §2, §3

[20] = target: T4, ALKTG-EGFL (human ALK amino acids …); assay: BLI, biotinylated ALKAL2 R123E on streptavidin biosensors, ALKTG-EGFL in solution, dilution series 6.4 µM-400 nM
Description: as §2, §3

[21] = target: T3, LTKTG-EGFL (human LTK amino acids …); assay: BLI, biotinylated ALKAL2 R123E on streptavidin biosensors, LTKTG-EGFL in solution, dilution series 6.4 µM-400 nM
Description: as §2, §3

T5 sequence (Q9UM73 19-1025): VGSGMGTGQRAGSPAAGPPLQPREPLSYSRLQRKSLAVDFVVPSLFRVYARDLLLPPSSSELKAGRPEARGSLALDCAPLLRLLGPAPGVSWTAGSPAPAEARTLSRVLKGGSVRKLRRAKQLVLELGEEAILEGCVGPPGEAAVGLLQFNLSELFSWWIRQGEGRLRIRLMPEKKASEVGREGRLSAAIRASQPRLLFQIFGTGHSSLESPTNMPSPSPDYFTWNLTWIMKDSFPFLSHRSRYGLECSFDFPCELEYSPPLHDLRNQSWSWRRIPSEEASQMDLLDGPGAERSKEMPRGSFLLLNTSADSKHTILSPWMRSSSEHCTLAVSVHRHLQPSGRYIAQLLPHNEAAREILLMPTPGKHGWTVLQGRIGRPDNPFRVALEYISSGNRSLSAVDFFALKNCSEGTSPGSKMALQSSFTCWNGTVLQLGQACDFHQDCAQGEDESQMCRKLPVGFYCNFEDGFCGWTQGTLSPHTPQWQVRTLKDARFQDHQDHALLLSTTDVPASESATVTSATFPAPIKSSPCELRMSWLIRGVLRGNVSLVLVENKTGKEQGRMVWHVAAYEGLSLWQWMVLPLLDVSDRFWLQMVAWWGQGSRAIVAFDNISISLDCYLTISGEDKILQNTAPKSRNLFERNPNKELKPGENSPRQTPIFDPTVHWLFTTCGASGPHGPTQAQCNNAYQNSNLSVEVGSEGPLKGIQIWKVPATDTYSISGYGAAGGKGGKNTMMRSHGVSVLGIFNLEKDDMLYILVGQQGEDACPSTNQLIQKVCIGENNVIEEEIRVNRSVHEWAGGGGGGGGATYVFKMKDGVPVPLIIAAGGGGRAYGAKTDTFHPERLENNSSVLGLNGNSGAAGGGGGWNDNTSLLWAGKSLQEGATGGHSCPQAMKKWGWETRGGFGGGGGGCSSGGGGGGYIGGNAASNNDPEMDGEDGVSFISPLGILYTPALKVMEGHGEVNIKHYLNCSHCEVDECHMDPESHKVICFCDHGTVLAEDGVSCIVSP
T1 sequence (Q9UM73 648-985 limits assumed): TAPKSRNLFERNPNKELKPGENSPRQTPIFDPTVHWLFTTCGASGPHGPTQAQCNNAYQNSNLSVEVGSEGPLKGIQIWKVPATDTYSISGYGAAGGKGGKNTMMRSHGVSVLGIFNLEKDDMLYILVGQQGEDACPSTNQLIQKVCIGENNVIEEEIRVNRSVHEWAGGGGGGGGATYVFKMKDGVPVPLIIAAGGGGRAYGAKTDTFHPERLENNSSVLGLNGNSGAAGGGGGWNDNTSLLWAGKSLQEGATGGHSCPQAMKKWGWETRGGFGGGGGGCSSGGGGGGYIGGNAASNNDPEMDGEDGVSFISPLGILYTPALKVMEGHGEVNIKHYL
T4 sequence (Q9UM73 648-1025): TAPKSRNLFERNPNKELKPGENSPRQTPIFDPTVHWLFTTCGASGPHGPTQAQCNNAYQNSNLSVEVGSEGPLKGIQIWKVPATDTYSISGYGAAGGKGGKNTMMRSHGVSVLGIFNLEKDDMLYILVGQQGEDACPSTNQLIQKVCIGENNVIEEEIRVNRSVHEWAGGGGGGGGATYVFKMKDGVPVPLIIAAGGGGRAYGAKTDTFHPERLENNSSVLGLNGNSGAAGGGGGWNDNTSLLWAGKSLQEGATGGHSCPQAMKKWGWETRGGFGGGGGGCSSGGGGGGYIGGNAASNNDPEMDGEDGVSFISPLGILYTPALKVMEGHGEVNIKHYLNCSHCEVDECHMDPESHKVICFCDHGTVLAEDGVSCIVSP

B1: ALKAL1 (truncated, residues 57-129) (ligand, human, UniProt Q6UXT8 57-129, looked up)
chain: PSGSRSAEIFPRDSNLKDKFIKHFTGPVTFSPECSKHFHRLYYNTRECSTPAYYKRCARLLTRLAVSPLCSQT
notes: range 57-129; Tag-free in ITC, SEC-MALLS, crystals and Ba/F3 assays; also called ALKAL1^WT; WT ALKAL1
- Kd [1]: 2500 nM
- ΔG [1]: -7.95 kcal/mol
- ΔH [1]: -5.5 kcal/mol
- Kd [2]: 69 nM
- ΔG [2]: -10.2 kcal/mol
- ΔH [2]: -28.6 kcal/mol
- Kd [3]: 48 nM
- koff [3]: 0.0025 s⁻¹
- kon [3]: 52000 M⁻¹ s⁻¹
- Kd [4]: 31 nM
- koff [4]: 0.026 s⁻¹
- kon [4]: 860000 M⁻¹ s⁻¹
- fold decrease in affinity against ALKTG-EGFL [5]: 4 fold
- ΔG [6]: -8.93 kcal/mol
- ΔH [6]: -7.3 kcal/mol
- Kd [7]: 600 nM
- Kd [8]: 10 nM
- Kd [9]: 55 nM
- ΔG [9]: -10.4 kcal/mol
- ΔH [9]: -29.4 kcal/mol
- Kd [10]: 760 nM
- koff [10]: 0.093 s⁻¹
- kon [10]: 130000 M⁻¹ s⁻¹

B2: ALKAL1^R102E (residues 57-129) (ligand, human, UniProt Q6UXT8 57-129, looked up)
chain: PSGSRSAEIFPRDSNLKDKFIKHFTGPVTFSPECSKHFHRLYYNTEECSTPAYYKRCARLLTRLAVSPLCSQT
notes: range 57-129; also called ALKAL1 site 1 mutant R102E
- Kd [11]: 14000 nM

B3: ALKAL2 (truncated, residues 78-152) (ligand, human, UniProt Q6UX46 78-152, looked up)
chain: PSPEQRVEIVPRDLRMKDKFLKHLTGPLYFSPKCSKHFHRLYHNTRDCTIPAYYKRCARLLTRLAVSPVCMEDKQ
notes: range 78-152; Tag-free in ITC, SEC-MALLS, crystals and Ba/F3 assays; also called ALKAL2^WT; WT ALKAL2
- Kd [12]: 10 nM
- ΔG [12]: -11.4 kcal/mol
- ΔH [12]: -31 kcal/mol
- Kd [13]: 100 nM
- koff [13]: 0.0037 s⁻¹
- kon [13]: 28000 M⁻¹ s⁻¹
- fold decrease in affinity against ALKTG-EGFL [5]: 30 fold
- ΔG [14]: -10.6 kcal/mol
- ΔH [14]: -10.1 kcal/mol
- Kd [7]: 40 nM
- Kd [8]: 55 nM
- Kd [15]: 135 nM
- Kd [16]: 1300 nM
- ΔG [16]: -8.34 kcal/mol
- ΔH [16]: -8.3 kcal/mol
- Kd [17]: 70 nM
- ΔG [17]: -9.4 kcal/mol
- ΔH [17]: -9.7 kcal/mol
- Kd [18]: 6.8 nM
- ΔG [18]: -11.6 kcal/mol
- ΔH [18]: -30.2 kcal/mol
- Kd [19]: 350 nM
- koff [19]: 0.0005 s⁻¹
- kon [19]: 4000 M⁻¹ s⁻¹

B4: ALKAL2^R123E (residues 78-152) (ligand, human, UniProt Q6UX46 78-152, looked up)
chain: PSPEQRVEIVPRDLRMKDKFLKHLTGPLYFSPKCSKHFHRLYHNTEDCTIPAYYKRCARLLTRLAVSPVCMEDKQ
notes: range 78-152; also called ALKAL2 site 1 mutant R123E
- Kd [20]: 3500 nM
- Kd [21]: 2300 nM
